Patent publication US20250320312A1 (OXITOPE PHARMA B V, published 2025)
Numbering of substitutions follows the chain as printed.

T1: Peptide 4: Biotin-AGGGGSGGGGSGGGGSAAA-Tyr-acid (N-terminal biotin; C-terminal acid)
T1 construct: control peptide without PC
T1 peptide: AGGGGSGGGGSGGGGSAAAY

T2: Peptide 8: Biotin-AEAAAKEAAAKEAAAKEAAAKAAA-Tyr-acid (N-terminal biotin; C-terminal acid)
T2 construct: control peptide without PC
T2 peptide: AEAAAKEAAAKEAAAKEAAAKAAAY

T3: Peptide 4: Biotin-AGGGGSGGGGSGGGGSAAA-Tyr-acid (N-terminal biotin; C-terminal acid)
T3 construct: Control peptide without PC
T3 peptide: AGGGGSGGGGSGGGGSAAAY

T4: Peptide 8: Biotin-AEAAAKEAAAKEAAAKEAAAKAAA-Tyr-acid (N-terminal biotin; C-terminal acid)
T4 construct: Control peptide without PC
T4 peptide: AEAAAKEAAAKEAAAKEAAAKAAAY

B1: PcOxP_DB03_D07 (scFv, V domains shown)
VH: EVQLLESGGGLVQPGGSLRLSCAASGFTFSDVYMEWVRQAPGKGLEWVAASRNKANDYTTEYADSVKGRFTISRDNSKNTLYLQMNSLRAEDTAVYYCARDYYGSSYWYFDVWGQGTLVTVSS
VL: DIQMTQSPSSLSASVGDRVTITCTASESLYSSKHKVHYLAWYQQKPGKAPKLLIYGASNRYSGVPSRFSGSGSGTDFTLTISSLQPEDFATYYCAQFYKYPLTFGGGTKVEIK
notes: scFv in periplasmic extract
B2: PcOxP_DB04_G05 (scFv, V domains shown)
VH: B1 VH with V32F, Y102F
VL: DIVMTQSPDSLAVSLGERATINCTASESLYSSKHKVHYLAWYQQKPGQPPKLLIYGASNRYIGVPDRFSGSGSGTDFTLTISSLQAEDVAVYYCAQFYSYPLTFGGGTKVEIK
notes: scFv in periplasmic extract
B3: PcOxP_DB01_H08 (scFv, V domains shown)
VH: B1 VH with F29H, V32F
VL: DIQMTQSPSSLSASVGDRVTITCRASESISSSKHKHYLAWYQQKPGKAPKLLIYGASNRYIGVPSRFSGSGSGTDFTLTISSLQPEDFATYYCAQFYVYPLTFGGGTKVEIK
notes: scFv in periplasmic extract
B4: PcOxP_DB02_F04 (scFv, V domains shown)
VH: B1 VH with F29G, V32F, K54S, A55G, D57S, E61A, Y103F
VL: B2 VL
notes: scFv in periplasmic extract
B5: PcOxP_DB02_G04 (scFv, V domains shown)
VH: B1 VH with V32Y, N53W
VL: B2 VL with T24K, E27Q, L29V, Y30L, S31Y, H34N, V36K, Y61Q, S99V
notes: scFv in periplasmic extract
B6: PcOxP_DB03_E07 (scFv, V domains shown)
VH: B1 VH with V32N, T60N
VL: B1 VL with S62I, K99S
notes: scFv in periplasmic extract
B7: PcOxP_DB03_G03 (scFv, V domains shown)
VH: B1 VH with F29S, V32F
VL: B1 VL with E27Q, L29I, Y30S, R60H, S62I, K99S
notes: scFv in periplasmic extract
B8: PcOxP_DB03_D08 (scFv, V domains shown)
VH: B1 VH with T28W, V32F, S106A
VL: B1 VL with S62I, K99S
notes: scFv in periplasmic extract
B9: PcOxP_DB03_G06 (scFv, V domains shown)
VH: B1 VH with V32F
VL: B1 VL with S62I, K99E
notes: scFv in periplasmic extract
B10: PcOxP_DB03_F10 (scFv, V domains shown)
VH: B1 VH with V32H, K54S, A55G, D57S
VL: B1 VL with K35S, Y61F, S62I, K99S
notes: scFv in periplasmic extract
B11: PcOxP_DB02_F11 (scFv, V domains shown)
VH: B1 VH with F27T, V32F, A55Y
VL: B2 VL with I62P
notes: scFv in periplasmic extract
B12: PcOxP_DB02_G02 (scFv, V domains shown)
VH: B1 VH with T28G, V32F
VL: B2 VL with I62S
notes: scFv in periplasmic extract
B13: PcOxP_DB03_D11 (scFv, V domains shown)
VH: B1 VH with V32F, S105H
VL: B1 VL with N59S, S62I, K99E
notes: scFv in periplasmic extract
B14: PcOxP_DB03_E02 (scFv, V domains shown)
VH: B1 VH with F27W, V32F
VL: B1 VL with S32Q, S62I, K99Y
notes: scFv in periplasmic extract
B15: PcOxP_DB03_E01 (scFv, V domains shown)
VH: B1 VH with V32Y, T60V
VL: B1 VL with A57T, S62I, K99E
notes: scFv in periplasmic extract
B16: PcOxP_DB03_E09 (scFv, V domains shown)
VH: B1 VH with F29A, V32F, Y58Q, V112S
VL: B1 VL with Y61Q, K99S
notes: scFv in periplasmic extract
B17: PcOxP_DB02_F09 (scFv, V domains shown)
VH: B1 VH with T28Q, V32F, A55G, D57S, E61A
VL: B2 VL with I62S
notes: scFv in periplasmic extract
B18: PcOxP_DB03_F01 (scFv, V domains shown)
VH: B1 VH with S30N, V32F
VL: B1 VL with T24E, Y61L, S62I, K99E
notes: scFv in periplasmic extract
B19: PcOxP_DB03_G07 (scFv, V domains shown)
VH: B1 VH with V32H, S105Q
VL: B1 VL with S62I, K99S
notes: scFv in periplasmic extract
B20: PcOxP_DB03_E08 (scFv, V domains shown)
VH: B1 VH with D31S, V32F, K54A, V112L
VL: B1 VL with S62I, K99F
notes: scFv in periplasmic extract
B21: PcOxP_DB02_F06 (scFv, V domains shown)
VH: B1 VH with V32E, Y58F, Y102F
VL: B2 VL with L29I
notes: scFv in periplasmic extract
B22: PcOxP_DB02_E12 (scFv, V domains shown)
VH: B1 VH with T28G, V32F
VL: B2 VL with Q96E
notes: scFv in periplasmic extract
B23: PcOxP_DB03_G02 (scFv, V domains shown)
VH: B1 VH with V32G, M34I
VL: B1 VL with S28E, S62I, K99S
notes: scFv in periplasmic extract
B24: PcOxP_DB02_F10 (scFv, V domains shown)
VH: B1 VH with V32Q
VL: B2 VL with A25S, E27Q, L29V, Y30L, K35N, V36K, H37N, I62W
notes: scFv in periplasmic extract

molecular target: BSA (UniProt P02769); assay: scFv ELISA
Sequence (P02769 25-607 limits assumed): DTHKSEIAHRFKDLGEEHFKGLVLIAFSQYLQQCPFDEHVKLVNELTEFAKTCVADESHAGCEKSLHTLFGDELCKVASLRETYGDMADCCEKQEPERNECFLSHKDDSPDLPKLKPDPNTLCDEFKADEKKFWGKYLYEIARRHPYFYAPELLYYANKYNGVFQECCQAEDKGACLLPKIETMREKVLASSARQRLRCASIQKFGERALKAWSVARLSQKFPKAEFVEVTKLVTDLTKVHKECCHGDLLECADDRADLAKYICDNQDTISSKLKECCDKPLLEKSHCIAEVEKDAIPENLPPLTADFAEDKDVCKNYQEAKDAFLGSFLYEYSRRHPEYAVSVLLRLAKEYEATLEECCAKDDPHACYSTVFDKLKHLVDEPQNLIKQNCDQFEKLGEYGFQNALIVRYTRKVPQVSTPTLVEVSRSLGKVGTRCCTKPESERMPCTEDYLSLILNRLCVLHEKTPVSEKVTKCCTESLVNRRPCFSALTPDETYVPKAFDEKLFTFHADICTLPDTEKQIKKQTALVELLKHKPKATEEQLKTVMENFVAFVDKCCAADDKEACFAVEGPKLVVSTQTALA

Binder	OD450
B1	0.12 OD450
B2	0.07 OD450
B3	0.09 OD450
B4	0.09 OD450
B5	0.11 OD450
B6	0.08 OD450
B7	0.08 OD450
B8	0.1 OD450
B9	0.1 OD450
B10	0.09 OD450
B11	0.08 OD450
B12	0.06 OD450
B13	0.08 OD450
B14	0.11 OD450
B15	0.09 OD450
B16	0.08 OD450
B17	0.08 OD450
B18	0.09 OD450
B19	0.1 OD450
B20	0.09 OD450
B21	0.06 OD450
B22	0.06 OD450
B23	0.07 OD450
B24	0.09 OD450

molecular target: Peptide 1: Biotin-…-[Tyr(PC)]-acid; assay: scFv ELISA

Binder	OD450
B1	0.75 OD450
B2	1.2 OD450
B3	0.56 OD450
B4	0.47 OD450
B5	0.32 OD450
B6	0.78 OD450
B7	1.57 OD450
B8	0.54 OD450
B9	2.48 OD450
B10	0.65 OD450
B11	0.23 OD450
B12	1.01 OD450
B13	0.5 OD450
B14	2 OD450
B15	2.5 OD450
B16	0.39 OD450
B17	0.39 OD450
B18	0.58 OD450
B19	2.18 OD450
B20	0.87 OD450
B21	0.16 OD450
B22	0.26 OD450
B23	1.33 OD450
B24	0.51 OD450

molecular target: Peptide 5: Biotin-…-[Tyr(PC)]-acid; assay: scFv ELISA

Binder	OD450
B1	0.95 OD450
B2	1.67 OD450
B3	0.85 OD450
B4	0.74 OD450
B5	0.7 OD450
B6	0.86 OD450
B7	1.8 OD450
B8	0.57 OD450
B9	2.01 OD450
B10	0.85 OD450
B11	0.66 OD450
B12	1.13 OD450
B13	0.66 OD450
B14	1.49 OD450
B15	2.11 OD450
B16	0.72 OD450
B17	0.93 OD450
B18	0.8 OD450
B19	1.67 OD450
B20	0.92 OD450
B21	0.45 OD450
B22	0.58 OD450
B23	1.59 OD450
B24	1.2 OD450

Molecular target: T1, Peptide 4: …
Assay: scFv ELISA
In short: (§1)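 Bound scFv was read as OD450 after HRP–anti-V5 detection, TMB development and HCl stop. PPE with BSA was incubated 1 h at RT on BSA-blocked wells coated overnight at 4° C. with peptide, or on streptavidin wells loaded 1 h with biotinylated PC-peptides at 1 μg/mL.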

Binder	OD450
B1	0.06 OD450
B3	0.06 OD450
B6	0.05 OD450
B7	0.05 OD450
B8	0.05 OD450
B9	0.06 OD450
B10	0.05 OD450
B13	0.06 OD450
B14	0.06 OD450
B15	0.06 OD450
B16	0.05 OD450
B18	0.05 OD450
B19	0.06 OD450
B20	0.05 OD450
B23	0.04 OD450

Molecular target: T2, Peptide 8: …
Assay: scFv ELISA
In short: as §1

Binder	OD450
B1	0.05 OD450
B3	0.06 OD450
B6	0.05 OD450
B7	0.08 OD450
B8	0.05 OD450
B9	0.06 OD450
B10	0.07 OD450
B13	0.05 OD450
B14	0.05 OD450
B15	0.06 OD450
B16	0.05 OD450
B18	0.05 OD450
B19	0.05 OD450
B20	0.05 OD450
B23	0.05 OD450

Molecular target: T3, Peptide 4: …
Assay: scFv ELISA
In short: as §1

Binder	OD450
B2	0.05 OD450
B4	0.04 OD450
B5	0.05 OD450
B11	0.04 OD450
B12	0.04 OD450
B17	0.04 OD450
B21	0.04 OD450
B22	0.05 OD450
B24	0.05 OD450

Molecular target: T4, Peptide 8: …
Assay: scFv ELISA
In short: as §1

Binder	OD450
B2	0.05 OD450
B4	0.05 OD450
B5	0.05 OD450
B11	0.04 OD450
B12	0.04 OD450
B17	0.04 OD450
B21	0.04 OD450
B22	0.06 OD450
B24	0.04 OD450
